Legend:
[1] = molecular target: purified YibK protein with R146C (21.6 kDa monomer) (UniProt P44868); experiment: SDS-PAGE without reducing agent and Western blot (disulfide-linked dimer); purified YibK protein, no reducing agent
two-hybrid = molecular target: the molecule itself; experiment: two-hybrid

Row | Molecule | stoichiometry N [1] | fold P_cadBA transcriptional activation over cytoplasmic YibK–SH2 (two-hybrid)
1 | purified YibK protein with R146C (21.6 kDa monomer) (from UniProt P44868) (natural protein) | 2 | 
2 | wild-type YibK–SH2 (expressed as SS–YibK–SH2) (natural protein, also called WT; not shown: SH2 domain of ABL1 kinase, C-terminal, kept) MLDIVLYEPEIPQNTGNIIRLCANTGFRLHLIEPLGFTWDDKRLRRSGLDYHEFAEIKRHKTFEAFLESEKPKRLFALTTKGCPAHSQVKFKLGDYLMFGPETRGIPMSILNEMPMEQKIRIPMTANSRSMNLSNSVAVTVYEAWRQLGYKGAVNLPEVK |  | 66 fold

Source: publication PMC8514426 (Nature Communications, 2021)
